{"source": "patent US20250154272A1", "binders": {"B1": {"name": "ctrl IgG_L-3-34-j6 (antibody, part only; not given: isotype control IgG chains and linker, not shown: another chain or arm of the molecule; small tags and cut ends)", "scFv": "EVQLLESGGGLVQPGESLRLSCKAFGYTFTNHHINWVRQAPGKCLEWVGYINPYNDYTTFNDKFKDRFTLSVDKSKSTAYLQMNSLRAEDTAVYYCARTWGHWYFDLWGQGTLVTVSSGGGGSGGGGSGGGGSNIQMTQSPSSLSASVGDRVTITCRASQSVSSNLAWYQQKPGKAPKLLIYDSSTRATGVPSRFSGSGSGTDFTLTISSLQPEDFATYYCQQYNNWPPWTFGCGTKLEIKR"}}, "target": "human CD137-His tag protein (R&D Systems, 9220-4B) (human) (UniProt Q07011)", "experiment": "ELISA, human CD137-His tag protein immobilized on the plate, anti-human IgG Fc-HRP, A450-A570", "data": [{"binder": "B1", "values": [{"measurement": "EC50 (read off the curve)", "value": 4, "unit": "ng/mL"}]}]}
